Bridge positions count the residues as written; N and C are the ends. Square brackets hold non-standard residues; d marks the D form. Ends that are not written are not given here. * marks the point of attachment. Dihydroorotyl(S) = O=C1C[C@@H](C(=O)*)NC(=O)N1; Oic = O=C(O)[C@@H]1C[C@@H]2CCCC[C@@H]2N1; PEG7 = NCCOCCOCCOCCOCCOCCOCCOCCC(=O)O; NMeI = CC[C@H](C)[C@H](NC)C(=O)O; tBuAla = CC(C)(C)C[C@H](N)C(=O)O; 3Pal = N[C@@H](Cc1cccnc1)C(=O)O; PEG5 = NCCOCCOCCOCCOCCOCCC(=O)O; 2Thi = N[C@@H](Cc1cccs1)C(=O)O; Pen = CC(C)(S)[C@H](N)C(=O)O; NMeC = CN[C@@H](CS)C(=O)O; Orn = NCCC[C@H](N)C(=O)O; GABA = NCCCC(=O)O; Sar = CNCC(=O)O
T1: recombinant human MASP1 active protease (amino acids 297-699, C-terminal His Tag) (human, UniProt P48740 297-699)
T1 sequence: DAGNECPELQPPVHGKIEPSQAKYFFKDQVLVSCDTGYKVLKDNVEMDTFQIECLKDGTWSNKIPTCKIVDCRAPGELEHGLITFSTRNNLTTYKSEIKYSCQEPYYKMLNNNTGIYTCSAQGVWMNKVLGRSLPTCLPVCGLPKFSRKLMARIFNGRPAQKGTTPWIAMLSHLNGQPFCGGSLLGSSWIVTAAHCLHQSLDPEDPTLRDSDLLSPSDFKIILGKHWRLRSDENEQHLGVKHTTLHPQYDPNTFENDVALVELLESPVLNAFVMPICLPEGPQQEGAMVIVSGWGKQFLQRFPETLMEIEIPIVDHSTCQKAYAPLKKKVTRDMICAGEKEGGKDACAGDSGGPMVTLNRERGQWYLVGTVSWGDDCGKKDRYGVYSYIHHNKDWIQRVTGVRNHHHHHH


Molecular target: T1, recombinant human MASP1 active protease …
Test: cell-based or functional assay

human MASP1 IC50 [nM]	Binder
2.5	[Sar]ICSRSLP[Oic]I[Pen]IPD-OH (disulfide 3-11; N-terminus assumed; SMILES CC[C@H](C)[C@H](NC(=O)CNC)C(=O)N[C@H]1CSSC(C)(C)[C@@H](C(=O)N[C@H](C(=O)N2CCC[C@H]2C(=O)N[C@@H](CC(=O)O)C(=O)O)[C@@H](C)CC)NC(=O)[C@H]([C@@H](C)CC)NC(=O)[C@@H]2C[C@@H]3CCCC[C@@H]3N2C(=O)[C@@H]2CCCN2C(=O)[C@H](CC(C)C)NC(=O)[C@H](CO)NC(=O)[C@H](CCCNC(=N)N)NC(=O)[C@H](CO)NC1=O) [((N-Me)G)-IC+SRSLP-(Oic)-I-(Pen)+IPD-OH]
1.85	AICSRSLP[Oic]I[Pen]IPD-OH (disulfide 3-11; also: TFA salt) [AIC+SRSLP-(Oic)-I-(Pen)+IPD-OH]
3	[Dihydroorotyl(S)]ICSRS[tBuAla]PPI[Pen]IPD-NH2 (disulfide 3-11; SMILES CC[C@H](C)[C@H](NC(=O)[C@@H]1CC(=O)NC(=O)N1)C(=O)N[C@H]1CSSC(C)(C)[C@@H](C(=O)N[C@H](C(=O)N2CCC[C@H]2C(=O)N[C@@H](CC(=O)O)C(N)=O)[C@@H](C)CC)NC(=O)[C@H]([C@@H](C)CC)NC(=O)[C@@H]2CCCN2C(=O)[C@@H]2CCCN2C(=O)[C@H](CC(C)(C)C)NC(=O)[C@H](CO)NC(=O)[C@H](CCCNC(=N)N)NC(=O)[C@H](CO)NC1=O) [(Hoo)-IC+SRS-((tBu)A)-PPI-(Pen)+IPD-NH2]
2.6	[3Pal]ICSRS[tBuAla]PPI[Pen]IPD-NH2 (disulfide 3-11; N-terminus assumed; SMILES CC[C@H](C)[C@H](NC(=O)[C@@H](N)Cc1cccnc1)C(=O)N[C@H]1CSSC(C)(C)[C@@H](C(=O)N[C@H](C(=O)N2CCC[C@H]2C(=O)N[C@@H](CC(=O)O)C(N)=O)[C@@H](C)CC)NC(=O)[C@H]([C@@H](C)CC)NC(=O)[C@@H]2CCCN2C(=O)[C@@H]2CCCN2C(=O)[C@H](CC(C)(C)C)NC(=O)[C@H](CO)NC(=O)[C@H](CCCNC(=N)N)NC(=O)[C@H](CO)NC1=O) [(3-Pal)-IC+SRS-((tBu)A)-PPI-(Pen)+IPD-NH2]
1.1	PICSRS[tBuAla]PPI[Pen]IP-NH2 (disulfide 3-11; N-terminus assumed; SMILES CC[C@H](C)[C@H](NC(=O)[C@@H]1CCCN1)C(=O)N[C@H]1CSSC(C)(C)[C@@H](C(=O)N[C@H](C(=O)N2CCC[C@H]2C(N)=O)[C@@H](C)CC)NC(=O)[C@H]([C@@H](C)CC)NC(=O)[C@@H]2CCCN2C(=O)[C@@H]2CCCN2C(=O)[C@H](CC(C)(C)C)NC(=O)[C@H](CO)NC(=O)[C@H](CCCNC(=N)N)NC(=O)[C@H](CO)NC1=O) [(beta-P)-IC+SRS-((tBu)A)-PPI-(Pen)+IP-NH2]
2.7	AICSRS[tBuAla]P[Oic]ICI-NH2 (disulfide 3-11; N-terminus assumed; SMILES CC[C@H](C)[C@H](NC(=O)[C@@H]1CSSC[C@H](NC(=O)[C@@H](NC(=O)[C@H](C)N)[C@@H](C)CC)C(=O)N[C@@H](CO)C(=O)N[C@@H](CCCNC(=N)N)C(=O)N[C@@H](CO)C(=O)N[C@@H](CC(C)(C)C)C(=O)N2CCC[C@H]2C(=O)N2[C@@H](C[C@@H]3CCCC[C@@H]32)C(=O)N[C@@H]([C@@H](C)CC)C(=O)N1)C(N)=O) [AIC+SRS-((tBu)A)-P-(Oic)-IC+I-NH2, listing 1 of 2 here]
2.6	[2Thi]ICSRS[tBuAla]PPI[Pen]IPD-NH2 (disulfide 3-11; N-terminus assumed; SMILES CC[C@H](C)[C@H](NC(=O)[C@@H](N)Cc1cccs1)C(=O)N[C@H]1CSSC(C)(C)[C@@H](C(=O)N[C@H](C(=O)N2CCC[C@H]2C(=O)N[C@@H](CC(=O)O)C(N)=O)[C@@H](C)CC)NC(=O)[C@H]([C@@H](C)CC)NC(=O)[C@@H]2CCCN2C(=O)[C@@H]2CCCN2C(=O)[C@H](CC(C)(C)C)NC(=O)[C@H](CO)NC(=O)[C@H](CCCNC(=N)N)NC(=O)[C@H](CO)NC1=O) [(beta-2-thienylalanine)-IC+SRS-((tBu)A)-PPI-(Pen)+IPD-NH2]
3	[GABA]ICSRS[tBuAla]PPI[Pen]IPD-NH2 (disulfide 3-11; N-terminus assumed; SMILES CC[C@H](C)[C@H](NC(=O)CCCN)C(=O)N[C@H]1CSSC(C)(C)[C@@H](C(=O)N[C@H](C(=O)N2CCC[C@H]2C(=O)N[C@@H](CC(=O)O)C(N)=O)[C@@H](C)CC)NC(=O)[C@H]([C@@H](C)CC)NC(=O)[C@@H]2CCCN2C(=O)[C@@H]2CCCN2C(=O)[C@H](CC(C)(C)C)NC(=O)[C@H](CO)NC(=O)[C@H](CCCNC(=N)N)NC(=O)[C@H](CO)NC1=O) [(Gamma-Abu)-IC+SRS-((tBu)A)-PPI-(Pen)+IPD-NH2]
2	[dA]ICSRS[tBuAla]PPI[Pen]IPD-NH2 (disulfide 3-11; N-terminus assumed; SMILES CC[C@H](C)[C@H](NC(=O)[C@@H](C)N)C(=O)N[C@H]1CSSC(C)(C)[C@@H](C(=O)N[C@H](C(=O)N2CCC[C@H]2C(=O)N[C@@H](CC(=O)O)C(N)=O)[C@@H](C)CC)NC(=O)[C@H]([C@@H](C)CC)NC(=O)[C@@H]2CCCN2C(=O)[C@@H]2CCCN2C(=O)[C@H](CC(C)(C)C)NC(=O)[C@H](CO)NC(=O)[C@H](CCCNC(=N)N)NC(=O)[C@H](CO)NC1=O) [aIC+SRS-((tBu)A)-PPI-(Pen)+IPD-NH2]
2.6	[Sar]ICSRSLP[Oic]I[Pen]IP[PEG5]-NH2 (disulfide 3-11; N-terminus assumed; SMILES CC[C@H](C)[C@H](NC(=O)CNC)C(=O)N[C@H]1CSSC(C)(C)[C@@H](C(=O)N[C@H](C(=O)N2CCC[C@H]2C(=O)NCCOCCOCCOCCOCCOCCC(N)=O)[C@@H](C)CC)NC(=O)[C@H]([C@@H](C)CC)NC(=O)[C@@H]2C[C@@H]3CCCC[C@@H]3N2C(=O)[C@@H]2CCCN2C(=O)[C@H](CC(C)C)NC(=O)[C@H](CO)NC(=O)[C@H](CCCNC(=N)N)NC(=O)[C@H](CO)NC1=O) [((N-Me)G)-IC+SRSLP-(Oic)-I-(Pen)+IP-(PEG4(19 atoms))-NH2]
2.09	Ac-G[NMeI]CSRSLPPICIPD-OH (disulfide 3-11; SMILES CC[C@H](C)[C@@H]1NC(=O)[C@@H]2CCCN2C(=O)[C@@H]2CCCN2C(=O)[C@H](CC(C)C)NC(=O)[C@H](CO)NC(=O)[C@H](CCCNC(=N)N)NC(=O)[C@H](CO)NC(=O)[C@@H](NC(=O)[C@H]([C@@H](C)CC)N(C)C(=O)CNC(C)=O)CSSC[C@@H](C(=O)N[C@H](C(=O)N2CCC[C@H]2C(=O)N[C@@H](CC(=O)O)C(=O)O)[C@@H](C)CC)NC1=O) [Ac-G-((N-Me)I)-C+SRSLPPIC+IPD-OH]
3.3	AICSRS[tBuAla]P[Oic]ICI-NH2 (disulfide 3-11; N-terminus assumed; SMILES CC[C@H](C)[C@H](NC(=O)[C@@H]1CSSC[C@H](NC(=O)[C@@H](NC(=O)[C@H](C)N)[C@@H](C)CC)C(=O)N[C@@H](CO)C(=O)N[C@@H](CCCNC(=N)N)C(=O)N[C@@H](CO)C(=O)N[C@@H](CC(C)(C)C)C(=O)N2CCC[C@H]2C(=O)N2[C@@H](C[C@@H]3CCCC[C@@H]32)C(=O)N[C@@H]([C@@H](C)CC)C(=O)N1)C(N)=O) [AIC+SRS-((tBu)A)-P-(Oic)-IC+I-NH2, listing 2 of 2 here]
2.23	AICSRSLP[Oic]I[Pen]IPD-NH2 (disulfide 3-11; also: TFA salt) [AIC+SRSLP-(Oic)-I-(Pen)+IPD-NH2]
2	[Orn]ICSRS[tBuAla]PPI[Pen]IPD-NH2 (disulfide 3-11; N-terminus assumed; SMILES CC[C@H](C)[C@H](NC(=O)[C@@H](N)CCCN)C(=O)N[C@H]1CSSC(C)(C)[C@@H](C(=O)N[C@H](C(=O)N2CCC[C@H]2C(=O)N[C@@H](CC(=O)O)C(N)=O)[C@@H](C)CC)NC(=O)[C@H]([C@@H](C)CC)NC(=O)[C@@H]2CCCN2C(=O)[C@@H]2CCCN2C(=O)[C@H](CC(C)(C)C)NC(=O)[C@H](CO)NC(=O)[C@H](CCCNC(=N)N)NC(=O)[C@H](CO)NC1=O) [(Orn)-IC+SRS-((tBu)A)-PPI-(Pen)+IPD-NH2]
3.2	AICSRSLP[Oic]I[NMeC]IP-NH2 (disulfide 3-11; N-terminus assumed; SMILES CC[C@H](C)[C@H](NC(=O)[C@H](C)N)C(=O)N[C@H]1CSSC[C@@H](C(=O)N[C@H](C(=O)N2CCC[C@H]2C(N)=O)[C@@H](C)CC)N(C)C(=O)[C@H]([C@@H](C)CC)NC(=O)[C@@H]2C[C@@H]3CCCC[C@@H]3N2C(=O)[C@@H]2CCCN2C(=O)[C@H](CC(C)C)NC(=O)[C@H](CO)NC(=O)[C@H](CCCNC(=N)N)NC(=O)[C@H](CO)NC1=O) [AIC+SRSLP-(Oic)-I-((N-Me)C)+IP-NH2]
0.96	AICSRSLP[Oic]I[Pen]IPD-OH (disulfide 3-11) [AIC+SRSLP-(Oic)-I-(Pen)+IPD-OH (salt free form)]
3.7	[Sar]ICSRSLP[Oic]I[Pen]IP[PEG7]-NH2 (disulfide 3-11; N-terminus assumed; SMILES CC[C@H](C)[C@H](NC(=O)CNC)C(=O)N[C@H]1CSSC(C)(C)[C@@H](C(=O)N[C@H](C(=O)N2CCC[C@H]2C(=O)NCCOCCOCCOCCOCCOCCOCCOCCC(N)=O)[C@@H](C)CC)NC(=O)[C@H]([C@@H](C)CC)NC(=O)[C@@H]2C[C@@H]3CCCC[C@@H]3N2C(=O)[C@@H]2CCCN2C(=O)[C@H](CC(C)C)NC(=O)[C@H](CO)NC(=O)[C@H](CCCNC(=N)N)NC(=O)[C@H](CO)NC1=O) [((N-Me)G)-IC+SRSLP-(Oic)-I-(Pen)+IP-(PEG7(25 atoms))-NH2]
